± gives the uncertainty stated by the source.
Assay: self-splicing fitness, log relative to wild type (ln ratio); higher = more splicing; Tetrahymena group I intron in knt gene, E. coli kanamycin selection, DiMSum; sequences stand for … in CUCUCU…GGAGGGAAAAGUUAUCAGGCAUGCACCUGGUAGCUAGUCUUUAAACCAAUAGAUUGCAUCGGUUUAAAAGGCAAGACCGUCAAAUUGCGGGAAAGGGGUCAACAGCCGUUCAGUACCAAGUCUCAGGGGAAACUUUGAGAUGGCCUUGCAAAGGGUAUGGUAAUAAGCUGACGGACAUGGUCCUAACCACGCAGCCAAGUCCUAAGUCAACAGAUCUUCUGUUGAUAUGGAUGCAGUUCACAGACUAAAUGUCGGUCGGGGAAGAUGUAUUCUUCUCAUAAGAUAUAGUCGGACCUCUCCUUAAUGGGAGCUAGCGGAUGAAGUGAUGCAACACUGGAGCCGCUGGGAACUAAUUUGUAUGCGAAAGUAUAUUGAUUAGUUUUGGAGUACUCGUGGUCG
Method in brief: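 Colonies from six replicate transformations of E. coli BL21(DE3) were pooled and amplicon-sequenced on an Illumina HiSeq 2500. The library placed an intron with all eight P1ex-region nucleotides randomised inside the knt kanamycin-resistance gene on pET-22b(+), and cells grew overnight at 37°C or 30°C on LB agar with or without 25 μg/mL kanamycin (plus 100 μg/mL carbenicillin, 50 μM IPTG, 0.2% rhamnose). Fitness is the DiMSum error-weighted combination of wild-type-normalised replicate fold changes, kanamycin versus none.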

Sequence	self-splicing fitness (ln) (30 °C)	self-splicing fitness (ln) (37 °C)
GAACAGCAAUAUUACGCCUU	-0.755 ± 0.13	0.356 ± 0.14
GAACAGCAAUAUUACGCGGC	-4 ± 0.43	-1.6 ± 0.23
GAACAGCAAUAUUACGCUAC	-4.08 ± 0.34	-1.64 ± 0.37
GAACAGCAAUAUUACGCUUC	-4.44 ± 0.19	-3.19 ± 0.2
GAACAGCAAUAUUACGGACG	-1.88 ± 0.11	-0.3 ± 0.12
GAACAGCAAUAUUACGGAUC	-0.794 ± 0.06	-0.441 ± 0.08
GAACAGCAAUAUUACGGAUU	-1.29 ± 0.076	-0.167 ± 0.093
GAACAGCAAUAUUACGGCAC	-0.296 ± 0.083	-0.0202 ± 0.1
GAACAGCAAUAUUACGGCAU	-0.904 ± 0.085	-0.254 ± 0.096
GAACAGCAAUAUUACGGCGA	-1.38 ± 0.09	-0.318 ± 0.077
GAACAGCAAUAUUACGGUUG	-2 ± 0.1	-0.692 ± 0.12
GAACAGCAAUAUUACGUAAA	-0.541 ± 0.061	0.234 ± 0.075
GAACAGCAAUAUUACGUCUA	-0.567 ± 0.074	-0.586 ± 0.073
GAACAGCAAUAUUACGUGUG	-1.35 ± 0.054	-0.967 ± 0.069
GAAGAGCAAUAUUACGAACC	-1.82 ± 0.25	-1.13 ± 0.29
GAAGAGCAAUAUUACGAAGU	-3.98 ± 0.42	-2.85 ± 0.3
GAAGAGCAAUAUUACGACAA		-2.02 ± 0.38
GAAGAGCAAUAUUACGAUAA	-3.7 ± 0.29	-2.11 ± 0.22
GAAGAGCAAUAUUACGAUAG	-3.04 ± 0.24	-2.14 ± 0.29
GAAGAGCAAUAUUACGAUGC	-2.13 ± 0.16	-1.9 ± 0.18

Sequence	self-splicing fitness (ln) (30 °C)	self-splicing fitness (ln) (37 °C)
GAAGAGCAAUAUUACGCACU	-2.39 ± 0.17	-1.33 ± 0.18
GAAGAGCAAUAUUACGCAGU	-2.47 ± 0.2	-2.38 ± 0.23
GAAGAGCAAUAUUACGCGCA	-1.11 ± 0.2	-1.35 ± 0.14
GAAGAGCAAUAUUACGCUAC	-3.19 ± 0.25	
GAAGAGCAAUAUUACGCUGA		-2.3 ± 0.28
GAAGAGCAAUAUUACGGAAG	-2.81 ± 0.2	-2.59 ± 0.44
GAAGAGCAAUAUUACGGAUC	-1.1 ± 0.071	-1.1 ± 0.09
GAAGAGCAAUAUUACGGGUA	-2.6 ± 0.19	-1.89 ± 0.15
GAAGAGCAAUAUUACGUAAC	-1.31 ± 0.12	-1.54 ± 0.21
GAAGAGCAAUAUUACGUCCA	-3.13 ± 0.4	
GAAGAGCAAUAUUACGUGAA	-2.94 ± 0.15	-2.03 ± 0.17
GAAGAGCAAUAUUACGUGGU	-4.07 ± 0.23	-3.01 ± 0.32
GAAGAGCAAUAUUACGUUGG	-3.53 ± 0.18	-2.34 ± 0.16
GAAUAGCAAUAUUACGAAAU	-1.3 ± 0.1	-1.6 ± 0.13
GAAUAGCAAUAUUACGACAC	-0.0325 ± 0.3	-0.0524 ± 0.23
GAAUAGCAAUAUUACGACAU	-0.389 ± 0.012	0.00512 ± 0.033
GAAUAGCAAUAUUACGACGC	0.293 ± 0.13	-0.0831 ± 0.16
GAAUAGCAAUAUUACGAGAC		-0.147 ± 0.18
GAAUAGCAAUAUUACGAGGC	-3.58 ± 0.38	-2.2 ± 0.3
GAAUAGCAAUAUUACGAGGG	-3.39 ± 0.18	-3.25 ± 0.19

— the supplement of paper PMC7877785
